Assay results from the Human Domainome abundance scans (Beltran et al. 2025).
± gives the uncertainty stated by the source.

B1: Zinc finger homeobox protein 4, residues 2183 to 2238; numbered along this chain, Q86UP3 (parent)
chain: SSRTRFTDYQLRVLQDFFDTNAYPKDDEIEQLSTVLNLPTRVIVVWFQNARQKARK

Variants of: B1
Assay: abundance fitness (aPCA) (normalised: wild type 0, dead -1); higher = more abundant; growth selection in yeast, the domain comes from the species named
Settings: Homo sapiens
For SSRTRFTDYALRVLQDFFDTNAYPKDDEIEQLSTVLNLPTRVIVVWFQNARQKARK, the abundance fitness was -0.459 ± 0.073. In the case of SSRTRFTDYRLRVLQDFFDTNAYPKDDEIEQLSTVLNLPTRVIVVWFQNARQKARK, the abundance fitness is reported as -0.657 ± 0.079. In the case of SSRTRFTDYQLRVLQDFFDTNAYPKDDEIEQFSTVLNLPTRVIVVWFQNARQKARK, the abundance fitness is reported as -0.207 ± 0.11. For SSRTRFTDYQLRVLQDFFDTNAYPKDDEIEQLSTVLNDPTRVIVVWFQNARQKARK, the abundance fitness was -0.709 ± 0.12. With SSRTRFTDYQLRVLQDFFDTNAYPKDDEIEQLSTVLNLPTRVIVVWFQEARQKARK the abundance fitness was 0.032 ± 0.15. For SSRTRFTDYQLRVLQDFFDTNAYPKDDEIEQLSTVLNLPTRVIVVWFQKARQKARK, the abundance fitness was -0.153 ± 0.18. Variant SSRTRFTDYQLRVLQDFFDTNAYPKDDEIEQLSTVLNLPTRVIVVWFQVARQKARK has an abundance fitness of -0.261 ± 0.11. Work on SSRTRFTDYQLRVLQDFFDTNAYPKDDEIEQLQTVLNLPTRVIVVWFQNARQKARK yielded an abundance fitness of -0.134 ± 0.31. Work on SSRTRFTDYQLRVLQDFFDTNAYPKDDEIEQLETVLNLPTRVIVVWFQNARQKARK yielded an abundance fitness of -0.209 ± 0.31. SSRTRFTDYQLRVLQDFFDTNAYPKDDEIEQLSTVLNLPTRVIVVWFQNARQKARG showed an abundance fitness of -0.038 ± 0.19. Variant SSRTRFTDYQLRVLQDFFDTNAYPKDDEIEQLSTVLNLPTRVIVVWFQNARQKARP has an abundance fitness of 0.04 ± 0.38. SSRTRFTDYQLRVLQDFFDTNPYPKDDEIEQLSTVLNLPTRVIVVWFQNARQKARK showed an abundance fitness of 0.133 ± 0.15. SSRTRFTDYQLRVLQDVFDTNAYPKDDEIEQLSTVLNLPTRVIVVWFQNARQKARK gave an abundance fitness of -0.25 ± 0.09. Variant WSRTRFTDYQLRVLQDFFDTNAYPKDDEIEQLSTVLNLPTRVIVVWFQNARQKARK has an abundance fitness of -1.16 ± 0.35. Work on SSRTRFTDYQLRVLQDFFDTNAYPKDDEIEQLSTVLNLPTRVIPVWFQNARQKARK yielded an abundance fitness of -0.356 ± 0.075. SSRTRFTDYQLRVLQDFFDTNAYPKDDEIEQLSTVLNLPTRVILVWFQNARQKARK showed an abundance fitness of 0.042 ± 0.068. Work on SSRTRFTDYQLRVLQDFFDTNAYPKDDEIEQLSTVLNLPTRVIVVWFQNARQKAYK yielded an abundance fitness of 0.176 ± 0.39. SSRTRFTDYQLRVLQDFFDTNAYPKDDEIEQLSTVLCLPTRVIVVWFQNARQKARK gave an abundance fitness of -0.358 ± 0.12. SSRTRFTDYQLRVLQDFFDTNAYPKDDEIEQLSTVLDLPTRVIVVWFQNARQKARK gave an abundance fitness of -0.061 ± 0.13. Work on SSRTRFTDYQLRVLQDFFDTNAYPKDDEIEQLSTVLHLPTRVIVVWFQNARQKARK yielded an abundance fitness of -0.282 ± 0.2. SERTRFTDYQLRVLQDFFDTNAYPKDDEIEQLSTVLNLPTRVIVVWFQNARQKARK showed an abundance fitness of 0.195 ± 0.11. Work on SSRTRFTDYQLRVLQDFFDHNAYPKDDEIEQLSTVLNLPTRVIVVWFQNARQKARK yielded an abundance fitness of -0.179 ± 0.18. Work on SSRTRFTDYQLRVLQDFFDINAYPKDDEIEQLSTVLNLPTRVIVVWFQNARQKARK yielded an abundance fitness of -0.308 ± 0.14. Work on SSRTRFTDYQLRVLQDFFDKNAYPKDDEIEQLSTVLNLPTRVIVVWFQNARQKARK yielded an abundance fitness of 0.133 ± 0.12. With SSRTRFTDYQLRVLQDFFDPNAYPKDDEIEQLSTVLNLPTRVIVVWFQNARQKARK the abundance fitness was -0.57 ± 0.15. Variant SSRTRFTDYQLRVLQDFFDTNAYPKDDEIEQLSTVLNLPTRVIVVWFQNARQPARK has an abundance fitness of -0.054 ± 0.12. For SSRTRPTDYQLRVLQDFFDTNAYPKDDEIEQLSTVLNLPTRVIVVWFQNARQKARK, the abundance fitness was -0.697 ± 0.1. For SSRTRFTDYQLRVLQDFFDTNAYPKDDGIEQLSTVLNLPTRVIVVWFQNARQKARK, the abundance fitness was -0.207 ± 0.076. In the case of SSRTRFTDYQLRVLQDFFDTNAYPKDDEIEQLSTVLNLPTRVIVVWFKNARQKARK, the abundance fitness is reported as -0.434 ± 0.23. SSRTRFTDYQLRVLQDFFDTNAYPKDDEIEQLSTVLNLPTRVIVVWGQNARQKARK gave an abundance fitness of -0.342 ± 0.09. Work on SSRTRFTDYQLRVLQDFFDTNAYPKDDEIEQLSTVLNLPTRVIVVWEQNARQKARK yielded an abundance fitness of -0.967 ± 0.16. SSRTRFTDYQLRVLQDFFDTNAYPKDDEIEVLSTVLNLPTRVIVVWFQNARQKARK showed an abundance fitness of -0.206 ± 0.079. SSRTRFTDYQLRVLQDFFDTNAYPKDDEIELLSTVLNLPTRVIVVWFQNARQKARK showed an abundance fitness of -0.278 ± 0.087. For SSRTRFTDYQLRVLQDFFDTNAYPKDDEIEQLSTVLNLPTRVIVVWFQNARPKARK, the abundance fitness was -0.049 ± 0.15. Variant SSRTRFTDYQLRVLQDFWDTNAYPKDDEIEQLSTVLNLPTRVIVVWFQNARQKARK has an abundance fitness of -0.027 ± 0.14. In the case of SSRTRFTDYQLRVLQDFYDTNAYPKDDEIEQLSTVLNLPTRVIVVWFQNARQKARK, the abundance fitness is reported as 0.101 ± 0.086. In the case of SSRTRFTDYQLRVLQDFFDTNAYPKDDEIEQLSTVLNLPTRVIVKWFQNARQKARK, the abundance fitness is reported as -0.26 ± 0.16. SSRTRFTDYQLRVLQDFFDTNAYPKDDEIEQLSTVLNLPTRVIVEWFQNARQKARK gave an abundance fitness of -0.049 ± 0.19. Work on SSRTRFTDYQLRVLQDFFDTDAYPKDDEIEQLSTVLNLPTRVIVVWFQNARQKARK yielded an abundance fitness of -0.128 ± 0.13. Work on SSRTRFSDYQLRVLQDFFDTNAYPKDDEIEQLSTVLNLPTRVIVVWFQNARQKARK yielded an abundance fitness of -0.014 ± 0.11. With SSRTRFADYQLRVLQDFFDTNAYPKDDEIEQLSTVLNLPTRVIVVWFQNARQKARK the abundance fitness was -0.14 ± 0.11. Variant SSRTRFTDYQLRVLQDFFDTNAYPKMDEIEQLSTVLNLPTRVIVVWFQNARQKARK has an abundance fitness of -0.056 ± 0.15. SSRTRFTDYQLRVLQDFFDTNAYPKHDEIEQLSTVLNLPTRVIVVWFQNARQKARK showed an abundance fitness of -0.021 ± 0.19. Variant SSRTRFTDYQLRVRQDFFDTNAYPKDDEIEQLSTVLNLPTRVIVVWFQNARQKARK has an abundance fitness of -0.911 ± 0.092. Variant SSRTRFTDYQLRVPQDFFDTNAYPKDDEIEQLSTVLNLPTRVIVVWFQNARQKARK has an abundance fitness of -0.931 ± 0.15. For SSRTRFTDYQLRVSQDFFDTNAYPKDDEIEQLSTVLNLPTRVIVVWFQNARQKARK, the abundance fitness was -0.731 ± 0.12. With SSRTRFTDYQLRVLQDFFDTNAYPKDDEIEQLSTVLNLPTRDIVVWFQNARQKARK the abundance fitness was 0.141 ± 0.15. For SSRTRFTDYQLRVLQDFFDTNAYPKDDEIEQLSTVLNLPTRVIVVWFQNHRQKARK, the abundance fitness was -0.394 ± 0.34. With SSRTRFTDYQLRVLQGFFDTNAYPKDDEIEQLSTVLNLPTRVIVVWFQNARQKARK the abundance fitness was 0.093 ± 0.084. For SSRTRFTDYQLRVLQMFFDTNAYPKDDEIEQLSTVLNLPTRVIVVWFQNARQKARK, the abundance fitness was -0.323 ± 0.12. Work on SSRTRFTDYQLRVLQAFFDTNAYPKDDEIEQLSTVLNLPTRVIVVWFQNARQKARK yielded an abundance fitness of -0.065 ± 0.12. In the case of SSRTRFTDYQLRVLQTFFDTNAYPKDDEIEQLSTVLNLPTRVIVVWFQNARQKARK, the abundance fitness is reported as -0.29 ± 0.13. SSRTPFTDYQLRVLQDFFDTNAYPKDDEIEQLSTVLNLPTRVIVVWFQNARQKARK gave an abundance fitness of 0.001 ± 0.12. In the case of SSRTEFTDYQLRVLQDFFDTNAYPKDDEIEQLSTVLNLPTRVIVVWFQNARQKARK, the abundance fitness is reported as 0.218 ± 0.22. SSRTRFTDYQLRVLQDFFDTNAYPKDDEIEQLSDVLNLPTRVIVVWFQNARQKARK showed an abundance fitness of -0.162 ± 0.11. SSRTRFTDYQLRVLQDFFDTNAYPKDDEIEQLSYVLNLPTRVIVVWFQNARQKARK showed an abundance fitness of -0.061 ± 0.14. With SSRTRFTDYQLRVLQDFFDTNAYPKDDEIEQLSGVLNLPTRVIVVWFQNARQKARK the abundance fitness was -0.134 ± 0.074. With SSRTRFTDYQLRVLQDFFDTNAYPKDDEIEQLSTVLNLPTSVIVVWFQNARQKARK the abundance fitness was 0.083 ± 0.1. With SSRTRFTDYQLRVLQDFFDTNAYPKDDEIEQLSTVLNLPTHVIVVWFQNARQKARK the abundance fitness was -0.196 ± 0.16. In the case of SSRTRFTDYQLRVLQDFFDTNAYPKDDEIEQLSTVLNLPTKVIVVWFQNARQKARK, the abundance fitness is reported as 0.033 ± 0.11. SSRTRFTDYQLRVLQDFFDTNAIPKDDEIEQLSTVLNLPTRVIVVWFQNARQKARK showed an abundance fitness of -0.219 ± 0.15. In the case of SSRTRFTDYQLRVLQDFFDTNAYMKDDEIEQLSTVLNLPTRVIVVWFQNARQKARK, the abundance fitness is reported as -0.596 ± 0.17. SSRTRFTDYQLRVLQDFFDTNAYLKDDEIEQLSTVLNLPTRVIVVWFQNARQKARK showed an abundance fitness of -0.419 ± 0.099. Variant SSRTRFTDYQLRVLQDFFDTNAYPKDDEMEQLSTVLNLPTRVIVVWFQNARQKARK has an abundance fitness of -0.03 ± 0.11. With SSRTRFTDYQLRVLQDFFDTNAYPKDDEVEQLSTVLNLPTRVIVVWFQNARQKARK the abundance fitness was -0.174 ± 0.083. Variant SSRTRFTDYQLRVLQDFFDTNAYPKDDEEEQLSTVLNLPTRVIVVWFQNARQKARK has an abundance fitness of -0.614 ± 0.13. With SSRTRFTDYQLRVLQDFFDTNAYPKDDEREQLSTVLNLPTRVIVVWFQNARQKARK the abundance fitness was -0.692 ± 0.089. With SSITRFTDYQLRVLQDFFDTNAYPKDDEIEQLSTVLNLPTRVIVVWFQNARQKARK the abundance fitness was 0.489 ± 0.16. Variant SSRTRFTDYQLRVLQDFFNTNAYPKDDEIEQLSTVLNLPTRVIVVWFQNARQKARK has an abundance fitness of -0.087 ± 0.14. With SSRTRFTDYQLRVLQDFFDTNAYPKDDEIEQLSTHLNLPTRVIVVWFQNARQKARK the abundance fitness was -0.006 ± 0.17. In the case of SSRTRFTDYQLRVLQDFFDTNAYPKDDEIEQLSTWLNLPTRVIVVWFQNARQKARK, the abundance fitness is reported as -0.202 ± 0.11.
